Source: article PMC5463365, “Assembly and use of high-density recombinant peptide chips for large-scale ligand screening is a practical alternative to synthetic peptide libraries” (BMC Genomics, 2017)
Where no end group is shown, it is not given here.

What was measured:
[1] = target: T1, Recombinant Streptavidin, unconjugated (UniProt P22629 25-183); assay: fluorescence polarisation; 20 nM 5'FAM-labeled peptide with rising concentrations of Streptavidin/StrepTactin, triplicates; ES2 buffer (100 mM potassium phosphate pH 7.4, 100 μg/ml bovine γ globulin, 0.02% NaN3); at least 2 h at RT or o/n at 4 °C; settings: both partners purified
T1 construct: Streptavidin, commercial recombinant protein; Used in the fluorescence polarisation assays; source: bought: recombinant, unconjugated format (Thermo Fisher Scientific, BioRad or Perkin Elmer, 'respectively')

[2] = target: T2, Streptavidin on Streptavidin-coated biosensors (UniProt P22629 25-183); assay: BLI; BLItz system; Streptavidin-coated biosensors exposed to chemically synthesized 5'FAM peptides for 2 min in ES2 buffer; only a single analyte concentration tested; settings: both partners purified
T2 construct: Streptavidin coated on disposable biosensors; also called Streptavidin biosensors; source: bought: Streptavidin-coated biosensors for ForteBio's BLItz system
T2 sequence (P22629 25-183): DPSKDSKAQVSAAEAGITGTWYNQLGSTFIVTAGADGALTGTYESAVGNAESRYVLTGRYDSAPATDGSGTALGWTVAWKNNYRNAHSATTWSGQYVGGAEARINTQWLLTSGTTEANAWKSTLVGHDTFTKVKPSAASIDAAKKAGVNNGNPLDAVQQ

T1 sequence (P22629 25-183): as above

B1: 5'FAM-labeled Strep-tag I peptide (peptide)
peptide: {FAM}-AWRHPQFGG
notes: Strep-tag I; source: synthetic peptide (GenScript Inc.)
B1 was tested. Which Kd [1] did it give?
The Kd was 2.75 µM.

{FAM}-WSHPQFEK (Strep-tag II; source: synthetic peptide) [5'FAM-labeled Strep-tag II peptide] was tested. Which Kd [2] did it give?
Its Kd is 25.4 µM.

What about the Kd [1] of the same binder?
The Kd was 13.3 µM.

How did the Kd [2] turn out when {FAM}-VSHPQAPF (B5; source: synthetic peptide) [5'FAM-labeled B5 peptide] was run?
Its Kd is 79.5 µM.
